The target of the series is T1, Rap1 (Naumovozyma castellii, UniProt Q96VU6 1-826).
T1 sequence: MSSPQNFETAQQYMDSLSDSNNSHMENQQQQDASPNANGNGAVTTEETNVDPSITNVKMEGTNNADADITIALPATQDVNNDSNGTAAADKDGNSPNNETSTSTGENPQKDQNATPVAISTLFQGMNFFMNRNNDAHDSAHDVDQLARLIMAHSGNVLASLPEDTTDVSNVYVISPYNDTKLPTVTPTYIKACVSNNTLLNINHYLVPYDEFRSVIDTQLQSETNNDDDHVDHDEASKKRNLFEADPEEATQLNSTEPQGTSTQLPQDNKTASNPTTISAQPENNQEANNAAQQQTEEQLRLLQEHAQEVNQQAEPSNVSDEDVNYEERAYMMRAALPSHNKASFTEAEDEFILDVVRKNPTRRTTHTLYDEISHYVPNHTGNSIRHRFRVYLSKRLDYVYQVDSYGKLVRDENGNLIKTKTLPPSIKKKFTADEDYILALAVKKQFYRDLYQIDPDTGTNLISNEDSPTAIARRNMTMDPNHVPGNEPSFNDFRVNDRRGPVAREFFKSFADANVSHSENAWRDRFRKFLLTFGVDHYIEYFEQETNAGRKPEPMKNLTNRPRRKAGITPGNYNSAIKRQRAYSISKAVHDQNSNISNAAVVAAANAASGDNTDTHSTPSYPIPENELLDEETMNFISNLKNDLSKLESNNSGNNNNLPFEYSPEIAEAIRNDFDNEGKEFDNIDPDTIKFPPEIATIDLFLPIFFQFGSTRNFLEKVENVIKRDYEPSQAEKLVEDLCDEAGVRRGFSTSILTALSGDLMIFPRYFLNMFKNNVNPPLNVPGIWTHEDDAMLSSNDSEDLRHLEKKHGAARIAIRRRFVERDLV
Briefly: EMSA; EMSA: 10 fmol probe, 1.5 ug competitor mix (E. coli DNA, salmon sperm DNA, yeast tRNA), 1x lambda-exonuclease buffer (67 mM glycine-KOH pH 9.4, 2.5 (unit not given) MgCl2, BSA 50 ug/ul as printed), 8% glycerol, 15 ul, 25 C 15 min; gel 6% in 1x TBE at 4 C. The note with it: protein: recombinant; tags: N-terminal 6xHis; label: 32P 3'-deoxy-ATP added to 3' end of C-strand; 3' overhang 9 nt; other end blunt.

B1: D17S9m (mixed)
DNA 1: GTCACACGTCACACTCTGGGACTCTCCGTGTCTGGGTGTC
DNA 2: ACACGGAGAGTCCCAGAGTGTGACGTGTGAC
modifications: 5'-phosphate on C-strand (DEPA substrate)
B1: the binding result is “no binding”.

The record behind these values is publication PMC5562816, “Rap1 and Cdc13 have complementary roles in preventing exonucleolytic degradation of telomere 5′ ends”.
